Measured values: the supplement of paper PMC9112550, “Optimization of the antimicrobial peptide Bac7 by deep mutational scanning” (BMC Biology, 2022)

Test system: Escherichia coli TOP10
Assay: shrunken log2 fold change of peptide-encoding DNA abundance (4.5 h post-induction vs induction); higher = less antimicrobial activity (less host growth inhibition)
Details: time post-induction: 4.5 h; library: site-saturation at positions 5, 18, 19, 20
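Further: peptides expressed intracellularly from a pBAD plasmid library in pooled LB shake-flask culture, induced with 0.3% L-arabinose, DNA abundance read by NGS, three biological replicates, DESeq2 with apeglm shrinkage.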

| Sequence | shrunken log2 fold change |
| --- | --- |
| RRIRDRPPRLPRPRPRPRVFPRP | 0.485 |
| RRIRTRPPRLPRPRPRPFSYPRP | -0.0874 |
| RRIRDRPPRLPRPRPRPVGEPRP | 0.55 |
| RRIRMRPPRLPRPRPRPIPFPRP | 0.146 |
| RRIRQRPPRLPRPRPRPLYWPRP | -0.11 |
| RRIRTRPPRLPRPRPRPKTKPRP | -0.212 |
| RRIRIRPPRLPRPRPRPTVCPRP | 0.312 |
| RRIRFRPPRLPRPRPRPNDPPRP | -0.226 |
| RRIRDRPPRLPRPRPRPSVLPRP | -0.246 |
| RRIRIRPPRLPRPRPRPIEHPRP | 0.00487 |
| RRIRPRPPRLPRPRPRPMAEPRP | 0.106 |
| RRIRQRPPRLPRPRPRPPNIPRP | -0.3 |
| RRIRCRPPRLPRPRPRPWFHPRP | -1.28 |
| RRIRFRPPRLPRPRPRPMCWPRP | -0.189 |
| RRIRYRPPRLPRPRPRPLTNPRP | -0.206 |
| RRIRLRPPRLPRPRPRPSPFPRP | -0.183 |
| RRIRHRPPRLPRPRPRPRQEPRP | 0.0426 |
| RRIRGRPPRLPRPRPRPEVDPRP | 1.84 |
| RRIRGRPPRLPRPRPRPLIDPRP | 1.36 |
| RRIRTRPPRLPRPRPRPSVKPRP | -0.177 |
| RRIRQRPPRLPRPRPRPGMGPRP | 0.33 |
| RRIRMRPPRLPRPRPRPCNFPRP | -0.415 |
| RRIRLRPPRLPRPRPRPNQDPRP | -0.0883 |

| Sequence | shrunken log2 fold change |
| --- | --- |
| RRIRRRPPRLPRPRPRPKIHPRP | 0.02 |
| RRIRKRPPRLPRPRPRPNHAPRP | -0.022 |
| RRIRVRPPRLPRPRPRPLQHPRP | -0.177 |
| RRIRFRPPRLPRPRPRPRWNPRP | 0.00853 |
| RRIRKRPPRLPRPRPRPNRRPRP | 0.0646 |
| RRIRLRPPRLPRPRPRPMKSPRP | 0.00719 |
| RRIRSRPPRLPRPRPRPMSYPRP | 0.0443 |
| RRIRARPPRLPRPRPRPYDCPRP | -0.131 |
| RRIRLRPPRLPRPRPRPAAHPRP | 0.163 |
| RRIRNRPPRLPRPRPRPQYIPRP | -0.0546 |
| RRIRWRPPRLPRPRPRPHNVPRP | -0.178 |
| RRIRYRPPRLPRPRPRPPCWPRP | 0.263 |
| RRIRQRPPRLPRPRPRPESLPRP | -0.00178 |
| RRIRVRPPRLPRPRPRPRNTPRP | -0.365 |
| RRIRDRPPRLPRPRPRPFSPPRP | -0.158 |
| RRIRERPPRLPRPRPRPRMMPRP | -0.011 |
| RRIRGRPPRLPRPRPRPHIAPRP | 2.17 |
| RRIRCRPPRLPRPRPRPNVFPRP | -0.24 |
| RRIRQRPPRLPRPRPRPSSYPRP | -0.416 |
| RRIRSRPPRLPRPRPRPRCYPRP | -0.107 |
| RRIRMRPPRLPRPRPRPMFKPRP | 0.0609 |
| RRIRFRPPRLPRPRPRPLQPPRP | 0.104 |
| RRIRRRPPRLPRPRPRPIWTPRP | 0.181 |

| Sequence | shrunken log2 fold change |
| --- | --- |
| RRIRERPPRLPRPRPRPIAYPRP | -0.0148 |
| RRIRRRPPRLPRPRPRPKWQPRP | -0.175 |
| RRIRGRPPRLPRPRPRPRRWPRP | 0.841 |
| RRIRHRPPRLPRPRPRPNMNPRP | -0.424 |
| RRIRHRPPRLPRPRPRPITDPRP | -0.229 |
| RRIRERPPRLPRPRPRPWSWPRP | 0.103 |
| RRIRSRPPRLPRPRPRPECGPRP | 0.646 |
| RRIRARPPRLPRPRPRPQSDPRP | 0.0175 |
| RRIRNRPPRLPRPRPRPHTSPRP | -0.268 |
| RRIRIRPPRLPRPRPRPPDNPRP | -0.368 |
| RRIRVRPPRLPRPRPRPLLKPRP | 0.0167 |
| RRIRDRPPRLPRPRPRPHNFPRP | 0.0112 |
| RRIRMRPPRLPRPRPRPSNYPRP | -0.078 |
| RRIRYRPPRLPRPRPRPFVWPRP | 0.119 |
| RRIRIRPPRLPRPRPRPNKMPRP | -0.464 |
| RRIRYRPPRLPRPRPRPKHIPRP | -0.66 |
| RRIRYRPPRLPRPRPRPKFEPRP | -0.0286 |
| RRIRERPPRLPRPRPRPVQEPRP | 0.0869 |
| RRIRMRPPRLPRPRPRPRYFPRP | 0.0308 |
| RRIRSRPPRLPRPRPRPPYKPRP | -0.465 |
| RRIRVRPPRLPRPRPRPAGMPRP | -0.0507 |
| RRIRERPPRLPRPRPRPEKIPRP | 0.0141 |
| RRIRSRPPRLPRPRPRPVAWPRP | 0.0469 |

| Sequence | shrunken log2 fold change |
| --- | --- |
| RRIRSRPPRLPRPRPRPRTDPRP | 0.0755 |
| RRIRPRPPRLPRPRPRPEKTPRP | 0.037 |
| RRIRKRPPRLPRPRPRPYKFPRP | -0.0374 |
| RRIRARPPRLPRPRPRPHMLPRP | -0.196 |
| RRIRDRPPRLPRPRPRPTNKPRP | -0.0409 |
| RRIRLRPPRLPRPRPRPWIFPRP | -0.0453 |
| RRIRYRPPRLPRPRPRPRSQPRP | 0.298 |
| RRIRIRPPRLPRPRPRPDQFPRP | -0.321 |
| RRIRYRPPRLPRPRPRPMNLPRP | -0.0114 |
| RRIRNRPPRLPRPRPRPFGKPRP | -0.0788 |
| RRIRIRPPRLPRPRPRPQVEPRP | -0.127 |
| RRIRCRPPRLPRPRPRPDFGPRP | -0.275 |
| RRIRNRPPRLPRPRPRPAAMPRP | -0.223 |
| RRIRCRPPRLPRPRPRPRPDPRP | 0.276 |
| RRIRDRPPRLPRPRPRPFRLPRP | -0.0192 |
| RRIRMRPPRLPRPRPRPQLAPRP | 0.598 |
| RRIRQRPPRLPRPRPRPPKWPRP | 0.136 |
| RRIRPRPPRLPRPRPRPIDAPRP | 0.159 |
| RRIRLRPPRLPRPRPRPSQFPRP | -0.12 |
| RRIRRRPPRLPRPRPRPPTKPRP | 0.52 |
| RRIRNRPPRLPRPRPRPVLTPRP | -0.235 |
| RRIRDRPPRLPRPRPRPMDVPRP | -0.0846 |
